{"source": "paper PMC6109925", "about": "“Structural and functional analysis of cystatin E reveals enzymologically relevant dimer and amyloid fibril states” (The Journal of Biological Chemistry, 2018)", "molecules": {"B1": {"name": "N-terminally truncated human cystatin E, Δ(Arg4–Leu13)hCE (domain or fragment)", "chain": "MELSPDDPQVQKAAQAAVASYNMGSNSIYYFRDTHIIKAQSQLVAGIKYFLTMEMGSTDCRKTRVTGDHVDLTTCPLAAGAQQEKLRCDFEVLVVPWQNSSQLLKHNCVQM"}, "B2": {"name": "human cystatin C, wild type (natural protein, UniProt P01034 27-146, looked up)", "chain": "SSPGKPPRLVGGPMDASVEEEGVRRALDFAVGEYNKASNDMYHSRALQVVRARKQIVAGVNYFLDVELGRTTCTKTQPNLDNCPFHDQPHLKRKAFCSFQIYAVPWQGTMTLSKSTCQDA", "notes": "N terminus Ser1 after removal of the pelB leader. numbers count on: the mature protein; Called 'untagged hCC' in the pull-down (it has no Strep-tag), while the methods give a C-terminal His6 tag for the expression constructs; also called hCC; WT cystatin C; source: E. coli Bl21(DE3), periplasm (pelB leader), purified (nickel-nitrilotriacetic acid resin, SEC)"}}, "key": {"[1]": {"target": "human legumain, wild type, activated (human) (UniProt Q99538)", "sequence (Q99538 18-323)": "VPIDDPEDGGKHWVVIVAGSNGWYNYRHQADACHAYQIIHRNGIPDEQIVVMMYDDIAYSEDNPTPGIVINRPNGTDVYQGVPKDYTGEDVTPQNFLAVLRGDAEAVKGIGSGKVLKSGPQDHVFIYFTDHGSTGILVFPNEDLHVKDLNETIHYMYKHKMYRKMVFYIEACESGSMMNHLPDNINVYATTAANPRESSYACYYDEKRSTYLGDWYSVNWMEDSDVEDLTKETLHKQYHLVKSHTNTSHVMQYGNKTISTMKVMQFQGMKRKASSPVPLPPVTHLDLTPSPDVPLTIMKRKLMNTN", "assay": "enzyme inhibition kinetics (Morrison equation for tight binding inhibitors); 50 mM citric acid pH 5.5, 100 mM NaCl, 0.05% Tween 20; 100 μM Z-AAN-AMC, 0.01 to 5 nM hCE, 2 nM legumain, 37 °C; triplicates"}, "[2]": {"target": "human cystatin E, full-length wild type, monomeric (human) (UniProt Q15828)", "assay": "SEC; S75 10/300 GL; WT cystatin E incubated at 60 °C in citric acid buffer at pH 3.0 before injection; monomer to dimer"}, "[3]": {"target": "human cystatin E, full-length wild type, monomeric (human) (UniProt Q15828)", "assay": "SEC; S75 10/300 GL, 20 mM citric acid pH 5.5, 100 mM NaCl; sample incubated 10 min at ≥70 °C (70, 80 or 85 °C), pH 5.5, then chilled on ice; monomer to dimer"}, "[4]": {"target": "human cystatin E, full-length wild type, monomeric (human) (UniProt Q15828)", "assay": "thioflavin T fluorescence; fibril formation after 10 min at 80 °C, 10 mg/ml, 50 mM citric acid, 100 mM NaCl (pH 3–6) or 50 mM Tris, 100 mM NaCl (pH 7.0); ThT fluorescence at 482 nm"}, "[5]": {"target": "human legumain, wild type, activated (human) (UniProt Q99538)", "assay": "SEC; S200 10/300 GL; legumain (0.5 mg/ml) incubated with dimeric hCE 1:1 (1 AEP and 1 hCE dimer) or monomeric hCE 1:2 at pH 5.5 for 10 min on ice; fractions on SDS-PAGE", "conditions": "scale: hCE chains per legumain"}, "[6]": {"target": "glycosylated human cystatin E (human) (UniProt Q15828)", "assay": "SEC; S75 10/300 GL, 20 mM citric acid pH 5.5, 100 mM NaCl; sample incubated 10 min at ≥70 °C (70, 80 or 85 °C), pH 5.5, then chilled on ice; monomer to dimer"}, "[7]": {"target": "the molecule itself", "assay": "SEC; S75 10/300 GL, 20 mM citric acid pH 5.5, 100 mM NaCl, 250 μl sample; no destabilising heat (ΔhCE kept at 4 °C and 37 °C before injection); oligomerisation state"}, "[8]": {"target": "the molecule itself", "assay": "SEC; S75 10/300 GL, 20 mM citric acid pH 5.5, 100 mM NaCl; sample incubated 10 min at ≥70 °C (70, 80 or 85 °C), pH 5.5, then chilled on ice; monomer to dimer"}}}
{"molecule": "human cystatin E, full-length wild type, monomeric (from UniProt Q15828 29-149) (natural protein)", "values": [{"measurement": "Ki", "setting": "[1]", "result": 10.7, "unit": "pM"}, {"measurement": "stoichiometry N", "setting": "[2]", "result": 2}, {"measurement": "percent converted to the dimer at 70 °C", "setting": "[3]", "result": "> 90", "unit": "%"}, {"measurement": "stoichiometry N", "setting": "[3]", "result": 2}, {"measurement": "fold increase in ThT signal after incubation at pH 3.0", "setting": "[4]", "result": 4, "unit": "fold"}]}
{"molecule": "dimeric human cystatin E (domain-swapped dimer) (from UniProt Q15828 29-149) (complex)", "values": [{"measurement": "Ki", "setting": "[1]", "result": 13.5, "unit": "pM"}, {"measurement": "stoichiometry N", "setting": "[5]", "result": 2}]}
{"molecule": "glycosylated human cystatin E (from UniProt Q15828 29-149) (natural protein)", "values": [{"measurement": "stoichiometry N", "setting": "[6]", "result": 2}]}
{"molecule": "B1", "values": [{"measurement": "stoichiometry N", "setting": "[7]", "result": 2}]}
{"molecule": "B2", "values": [{"measurement": "stoichiometry N", "setting": "[8]", "result": 2}]}
